What was measured:
coha1_human COL17A1 = coha1_human COL17A1 (UniProt Q9UMD9)
zn639_human ZNF639 = zn639_human ZNF639 (UniProt Q9UID6)
klh12_human KLHL12 = klh12_human KLHL12 (UniProt Q53G59)
crcm_human MCC = crcm_human MCC (UniProt P23508)
fads6_human FADS6 = fads6_human FADS6 (UniProt Q8N9I5)
sng3_human SYNGR3 = sng3_human SYNGR3 (UniProt O43761)
sp4_human SP4 = sp4_human SP4 (UniProt Q02446)
CCDC43 = CCDC43 (UniProt Q86WV7)
zbt14_human ZBTB14 = zbt14_human ZBTB14 (UniProt O43829)
xrcc4_human XRCC4 = xrcc4_human XRCC4 (UniProt Q13426)
thap1_human THAP1 = thap1_human THAP1 (UniProt Q9NVV9)
pick1_human PICK1 = pick1_human PICK1 (UniProt Q9NRD5)
ppip1_human PSTPIP1 = ppip1_human PSTPIP1 (UniProt O43586)
trbp2_human TARBP2 = trbp2_human TARBP2 (UniProt Q15633)
msd4_human MSANTD4 = msd4_human MSANTD4 (UniProt Q8NCY6)
car10_human CARD10 = car10_human CARD10 (UniProt Q9BWT7)
tbcd1_human TBC1D1 = tbcd1_human TBC1D1 (UniProt Q86TI0)
pnma5_human PNMA5 = pnma5_human PNMA5 (UniProt Q96PV4)
snx2_human SNX2 = snx2_human SNX2 (UniProt O60749)
mgst2_human MGST2 = mgst2_human MGST2 (UniProt Q99735)
flowr_human CACFD1 = flowr_human CACFD1 (UniProt Q9UGQ2)
tnip1_human TNIP1 = tnip1_human TNIP1 (UniProt Q15025)
tri37_human TRIM37 = tri37_human TRIM37 (UniProt O94972)
rprm_human RPRM = rprm_human RPRM (UniProt Q9NS64)
syph_human SYP = syph_human SYP (UniProt P08247)
sft2a_human SFT2D1 = sft2a_human SFT2D1 (UniProt Q8WV19)
cntrb_human CNTROB = cntrb_human CNTROB (UniProt Q8N137)
kank2_human KANK2 = kank2_human KANK2 (UniProt Q63ZY3)
Chain of kank2_human KANK2 (Q63ZY3 whole entry): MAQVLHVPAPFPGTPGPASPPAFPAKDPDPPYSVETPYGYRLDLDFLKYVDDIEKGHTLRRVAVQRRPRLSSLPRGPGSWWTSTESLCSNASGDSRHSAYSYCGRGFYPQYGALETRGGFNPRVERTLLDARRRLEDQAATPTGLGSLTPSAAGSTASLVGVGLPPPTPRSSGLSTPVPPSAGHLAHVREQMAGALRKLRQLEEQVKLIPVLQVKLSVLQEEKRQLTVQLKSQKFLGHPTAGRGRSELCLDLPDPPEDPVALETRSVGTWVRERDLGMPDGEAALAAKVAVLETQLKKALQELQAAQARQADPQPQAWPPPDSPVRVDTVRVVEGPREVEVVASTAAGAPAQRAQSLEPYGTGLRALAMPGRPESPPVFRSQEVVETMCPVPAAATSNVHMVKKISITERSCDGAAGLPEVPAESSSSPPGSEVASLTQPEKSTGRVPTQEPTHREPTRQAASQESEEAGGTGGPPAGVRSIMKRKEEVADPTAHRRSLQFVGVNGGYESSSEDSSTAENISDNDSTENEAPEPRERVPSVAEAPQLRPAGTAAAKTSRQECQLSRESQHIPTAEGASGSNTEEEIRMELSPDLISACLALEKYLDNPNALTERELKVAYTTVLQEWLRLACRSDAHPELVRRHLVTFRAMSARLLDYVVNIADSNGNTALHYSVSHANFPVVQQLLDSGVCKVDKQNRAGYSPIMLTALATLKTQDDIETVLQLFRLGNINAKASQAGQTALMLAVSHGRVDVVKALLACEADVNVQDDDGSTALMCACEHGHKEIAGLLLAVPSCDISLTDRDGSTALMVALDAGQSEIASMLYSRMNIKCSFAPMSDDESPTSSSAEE

Chain of pnma5_human PNMA5 (Q96PV4 whole entry): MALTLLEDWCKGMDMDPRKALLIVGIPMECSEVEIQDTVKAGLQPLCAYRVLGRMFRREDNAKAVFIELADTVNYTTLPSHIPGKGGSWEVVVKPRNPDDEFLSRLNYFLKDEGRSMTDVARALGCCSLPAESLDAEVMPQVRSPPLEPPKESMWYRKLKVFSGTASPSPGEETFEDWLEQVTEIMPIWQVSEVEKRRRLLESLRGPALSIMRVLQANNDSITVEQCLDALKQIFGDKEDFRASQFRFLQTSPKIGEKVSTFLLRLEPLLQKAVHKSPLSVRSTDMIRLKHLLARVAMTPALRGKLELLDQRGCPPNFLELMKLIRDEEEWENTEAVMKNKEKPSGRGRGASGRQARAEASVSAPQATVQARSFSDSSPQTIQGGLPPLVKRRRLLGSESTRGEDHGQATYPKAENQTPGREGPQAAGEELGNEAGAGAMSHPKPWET
Chain of SYNGR1, O43759-2 (O43759 other isoform, or with tags, fused parts or gaps): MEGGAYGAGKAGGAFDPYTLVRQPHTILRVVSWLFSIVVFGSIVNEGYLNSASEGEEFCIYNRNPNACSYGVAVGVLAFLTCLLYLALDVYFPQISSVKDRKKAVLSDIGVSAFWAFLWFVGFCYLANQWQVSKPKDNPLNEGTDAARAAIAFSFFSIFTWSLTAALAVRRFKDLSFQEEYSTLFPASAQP
Chain of IKZF1, Q13422-7 (Q13422 other isoform, or with tags, fused parts or gaps): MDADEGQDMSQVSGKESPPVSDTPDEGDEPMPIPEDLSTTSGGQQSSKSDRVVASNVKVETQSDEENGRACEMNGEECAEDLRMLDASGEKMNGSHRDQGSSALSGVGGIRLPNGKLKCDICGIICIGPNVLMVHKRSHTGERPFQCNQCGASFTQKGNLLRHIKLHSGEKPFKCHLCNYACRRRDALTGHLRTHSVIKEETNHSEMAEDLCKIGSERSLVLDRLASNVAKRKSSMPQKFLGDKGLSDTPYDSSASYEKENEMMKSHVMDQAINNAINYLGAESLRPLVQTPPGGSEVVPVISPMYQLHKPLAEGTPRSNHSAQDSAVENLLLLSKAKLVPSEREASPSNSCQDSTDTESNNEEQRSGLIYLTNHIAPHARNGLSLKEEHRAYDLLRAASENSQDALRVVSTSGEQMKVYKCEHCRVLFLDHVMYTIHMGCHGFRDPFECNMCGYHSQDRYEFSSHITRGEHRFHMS
Chain of sng3_human SYNGR3 (O43761 whole entry): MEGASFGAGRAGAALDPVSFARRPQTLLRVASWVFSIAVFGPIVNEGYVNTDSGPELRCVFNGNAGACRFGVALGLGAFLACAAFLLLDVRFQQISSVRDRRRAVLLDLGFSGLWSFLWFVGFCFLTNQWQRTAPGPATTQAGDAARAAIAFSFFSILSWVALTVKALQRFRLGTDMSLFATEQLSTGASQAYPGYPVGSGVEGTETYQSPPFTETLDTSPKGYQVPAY
Chain of zn639_human ZNF639 (Q9UID6 whole entry): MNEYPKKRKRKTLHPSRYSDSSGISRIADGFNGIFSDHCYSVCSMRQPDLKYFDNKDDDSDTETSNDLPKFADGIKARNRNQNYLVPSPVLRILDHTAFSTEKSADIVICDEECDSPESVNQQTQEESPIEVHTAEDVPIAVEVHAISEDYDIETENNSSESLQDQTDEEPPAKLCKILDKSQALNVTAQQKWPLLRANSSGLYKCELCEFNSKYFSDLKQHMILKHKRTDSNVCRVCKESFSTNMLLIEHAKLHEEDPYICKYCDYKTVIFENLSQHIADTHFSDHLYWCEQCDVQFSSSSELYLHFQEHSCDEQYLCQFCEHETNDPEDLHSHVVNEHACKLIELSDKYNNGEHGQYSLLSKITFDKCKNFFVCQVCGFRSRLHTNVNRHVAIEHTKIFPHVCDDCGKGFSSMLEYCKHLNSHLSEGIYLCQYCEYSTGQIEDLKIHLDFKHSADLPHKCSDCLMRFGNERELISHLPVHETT
Chain of tnip1_human TNIP1 (Q15025 whole entry): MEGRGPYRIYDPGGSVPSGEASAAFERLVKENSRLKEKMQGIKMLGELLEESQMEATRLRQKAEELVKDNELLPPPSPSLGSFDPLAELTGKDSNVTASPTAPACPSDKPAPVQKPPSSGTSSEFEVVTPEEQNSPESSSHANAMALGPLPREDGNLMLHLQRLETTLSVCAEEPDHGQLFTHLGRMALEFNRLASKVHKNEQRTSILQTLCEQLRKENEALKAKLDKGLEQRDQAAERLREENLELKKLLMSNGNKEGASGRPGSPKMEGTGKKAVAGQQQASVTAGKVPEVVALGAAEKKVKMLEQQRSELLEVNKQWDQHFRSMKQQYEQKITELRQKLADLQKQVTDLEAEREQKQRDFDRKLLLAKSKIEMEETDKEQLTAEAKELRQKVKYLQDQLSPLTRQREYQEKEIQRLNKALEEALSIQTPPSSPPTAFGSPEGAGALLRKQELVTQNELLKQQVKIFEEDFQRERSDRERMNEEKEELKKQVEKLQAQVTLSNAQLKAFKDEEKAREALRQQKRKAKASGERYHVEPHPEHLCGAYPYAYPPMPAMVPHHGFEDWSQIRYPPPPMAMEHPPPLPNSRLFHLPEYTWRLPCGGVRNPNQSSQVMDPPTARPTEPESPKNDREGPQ
Chain of flowr_human CACFD1 (Q9UGQ2 whole entry): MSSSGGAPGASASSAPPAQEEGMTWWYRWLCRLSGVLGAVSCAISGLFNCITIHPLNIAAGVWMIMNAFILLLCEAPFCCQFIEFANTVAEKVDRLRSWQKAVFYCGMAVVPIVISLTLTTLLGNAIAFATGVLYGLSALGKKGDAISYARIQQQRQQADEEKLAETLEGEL
Chain of sft2a_human SFT2D1 (Q8WV19 whole entry): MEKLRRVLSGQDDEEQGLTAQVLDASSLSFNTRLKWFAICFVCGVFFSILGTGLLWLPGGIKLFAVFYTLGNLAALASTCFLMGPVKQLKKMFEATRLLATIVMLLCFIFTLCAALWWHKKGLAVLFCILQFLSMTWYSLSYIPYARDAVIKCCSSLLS
Chain of TMEM239, Q8WW34-2 (Q8WW34 44-195): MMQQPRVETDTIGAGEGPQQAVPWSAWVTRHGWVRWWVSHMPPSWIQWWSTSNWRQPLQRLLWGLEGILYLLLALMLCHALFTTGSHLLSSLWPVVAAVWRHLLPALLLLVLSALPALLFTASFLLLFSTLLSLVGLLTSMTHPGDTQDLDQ

effect of a mutation on the interaction (coha1_human COL17A1) | effect of a mutation on the interaction (zn639_human ZNF639) | effect of a mutation on the interaction (klh12_human KLHL12) | effect of a mutation on the interaction (SYNGR1, O43759-2) | effect of a mutation on the interaction (crcm_human MCC) | effect of a mutation on the interaction (fads6_human FADS6) | effect of a mutation on the interaction (sng3_human SYNGR3) | effect of a mutation on the interaction (sp4_human SP4) | effect of a mutation on the interaction (CAMK2B, Q13554-3) | effect of a mutation on the interaction (IKZF1, Q13422-7) | effect of a mutation on the interaction (CCDC43) | effect of a mutation on the interaction (zbt14_human ZBTB14) | effect of a mutation on the interaction (xrcc4_human XRCC4) | effect of a mutation on the interaction (thap1_human THAP1) | effect of a mutation on the interaction (pick1_human PICK1) | effect of a mutation on the interaction (ppip1_human PSTPIP1) | effect of a mutation on the interaction (trbp2_human TARBP2) | effect of a mutation on the interaction (msd4_human MSANTD4) | effect of a mutation on the interaction (car10_human CARD10) | effect of a mutation on the interaction (tbcd1_human TBC1D1) | Substance | other results
disrupting interaction strength | with no effect | disrupting interaction strength | disrupting interaction strength | disrupting interaction strength | with no effect | with no effect | with no effect | disrupting interaction strength | with no effect | disrupting interaction strength | with no effect | with no effect | disrupting interaction strength | disrupting interaction strength | with no effect | disrupting interaction strength | disrupting interaction strength | disrupting interaction strength | with no effect | Bifunctional polynucleotide phosphatase/kinase (Homo sapiens), Q96T60 E326K | effect of a mutation on the interaction (TMEM239, Q8WW34-2): disrupting interaction strength; effect of a mutation on the interaction (pnma5_human PNMA5): disrupting interaction strength; effect of a mutation on the interaction (snx2_human SNX2): with no effect; effect of a mutation on the interaction (mgst2_human MGST2): with no effect; effect of a mutation on the interaction (flowr_human CACFD1): disrupting interaction strength; effect of a mutation on the interaction (tnip1_human TNIP1): with no effect; effect of a mutation on the interaction (tri37_human TRIM37): with no effect; effect of a mutation on the interaction (rprm_human RPRM): disrupting interaction strength; effect of a mutation on the interaction (syph_human SYP): with no effect; effect of a mutation on the interaction (sft2a_human SFT2D1): disrupting interaction strength; effect of a mutation on the interaction (cntrb_human CNTROB): with no effect; effect of a mutation on the interaction (kank2_human KANK2): disrupting interaction strength; effect of a mutation on the interaction (CCDC14, Q49A88-3): disrupting interaction strength
with no effect | with no effect | with no effect | with no effect | with no effect | with no effect | with no effect | with no effect | with no effect | with no effect | with no effect | with no effect | with no effect | with no effect | with no effect | with no effect | with no effect | with no effect | with no effect | with no effect | Bifunctional polynucleotide phosphatase/kinase (Homo sapiens), Q96T60 P20S | effect of a mutation on the interaction (TMEM239, Q8WW34-2): with no effect; effect of a mutation on the interaction (pnma5_human PNMA5): with no effect; effect of a mutation on the interaction (snx2_human SNX2): with no effect; effect of a mutation on the interaction (mgst2_human MGST2): with no effect; effect of a mutation on the interaction (flowr_human CACFD1): with no effect; effect of a mutation on the interaction (tnip1_human TNIP1): with no effect; effect of a mutation on the interaction (tri37_human TRIM37): with no effect; effect of a mutation on the interaction (rprm_human RPRM): with no effect; effect of a mutation on the interaction (syph_human SYP): with no effect; effect of a mutation on the interaction (sft2a_human SFT2D1): with no effect; effect of a mutation on the interaction (cntrb_human CNTROB): with no effect; effect of a mutation on the interaction (kank2_human KANK2): with no effect; effect of a mutation on the interaction (CCDC14, Q49A88-3): with no effect

Reference: IntAct's records for PubMed 32296183
